In PMC10987521, “An all-in-one tetrazine reagent for cysteine-selective labeling and bioorthogonal activable prodrug construction” (Nature Communications, 2024):
“Also recorded” adds a separate entry of the source. Like-named read-outs stand apart in the source and are kept apart here.

What was measured:
B16F10 melanoma tumor = test: In vivo anticancer efficacy, subcutaneous B16F10 melanoma tumor model; parameters: species or system BALB/c nude mice; details: four i.v. courses, 3.67 μmol·kg^−1 (TCO-P4 36.7 μmol·kg^−1), n = 5
Method: Tumor-bearing mice were established by subcutaneously injecting a suspension of 5 × 10^5 B16F10 cells per mouse into the front flank of each nude mouse. When tumor volume reached 50−70 mm^3, the animals were randomly divided into five groups (n = 5). The mice were administered different compounds suspended in PBS via the tail vein every 3 days for a total of four times.
The mice underwent four treatment courses on day 0, day 3, day 6, and day 9. Tumor size and body weight were measured every day. Tumor volume was calculated via the following formula: V = 1/2 × (minor axis) × (major axis)[2].
After 12 days, the mice were sacrificed and dissected to obtain tumor tissues and main organs, including heart, liver, spleen, lung, and kidney. Subsequently, all tissues were fixed in a 4% paraformaldehyde solution, routinely paraffin-embedded and sectioned, and then stained with hematoxylin and eosin, as well as using TdT-mediated dUTP nick-end labeling (TUNEL) for subsequent pathological analysis. TUNEL-positive cells appeared fluorescent green, representing the apoptosis of tumor cells (nuclei were fluorescent blue, stained with DAPI).
13. In vivo anticancer efficacy […]
13.2 Calculation of the tumor growth inhibition values (TGI)
Tumor growth inhibition values (TGI) were calculated using the following formula: TGI (%) = (1 − RTVtreatment/
RTVcontrol)*100. RTV refers to relative tumor volume, representing the ratio of the volume at the end of treatment to the
volume at the beginning of treatment. […]

LX2 cells = test: Cell uptake by fluorescence imaging, LX2; format: cell-based, Human; details: αvβ3-negative, 10 μM, 2 h
B16F10 cells = test: Comparison of cell uptake between RGD-Dox and Dox using flow cytometry; format: cell-based, Mouse
Method: B16F10 cells were cultured for 48 h. […]
12.1 Calculation of the fluorescence coefficient (F c)
The Fc was the radio calculated
12.2 Uptake calculation of the B16F10 cells […]
deviation were analyzed using Origin Pro 2015.
B16F10 cells, characterized by α vβ3
Following the incubation period, the
Subsequently, the cells were trypsinized and underwent three PBS rinses. […]

[1] = format: physicochemical; details: PBS pH 7.4, 10% DMSO, 37 °C; for intact (%) under 10 mM GSH at 2 μM: 520 nm HPLC–MS; for intact (%) under 10 mM GSH: 520 nm HPLC–MS (PyTz UV–Vis)
Method: All tetrazine compounds were diluted to a concentration of 50 μM or 2 μM using PBS (10% DMSO, pH 7.4). A stock solution of GSH (400 mM in PBS) was then added to achieve a final concentration of 10 mM. The mixture was homogenized and incubated at 37 °C for 12 h. The stability of the compounds (including all peptide conjugates and PmTz) was assessed by measuring the decrease in peak area at 520 nm (with the initial peak area at 0 min defined as 100%). This measurement was monitored by HPLC–MS. Similarly, the stability of PyTz was determined by monitoring the decrease in peak intensity at 520 nm using UV–Vis. Statistical analysis was performed on data from three replicates to calculate the mean and standard deviation. […]
Response 1: We appreciate your comment. We conducted stability tests on RGD-Dox and RGD-SN-38 in 10 mM GSH at a concentration of 2 μM, which is below the critical micelle concentrations. After incubating at 37 °C for 12 hours, we observed that 95% of RGD-Dox and 85% of RGD-SN-38 remained intact. This stability is slightly less than […]
the observed stability is intrinsic to the peptide-drug conjugates, with a slight enhancement due to micelle […]
concentrations, after 12 hours of incubation at 37 °C (Figure S46). […]
intrinsic to the PDCs, with a slight enhancement by micelle formation.
Details of these experiments have been included in the Supplementary Information (Page S42), as outlined below:
RGD-Dox and RGD-SN-38 were diluted to a concentration of 2 μM using PBS (10% DMSO, pH 7.4). A stock solution of GSH (400 mM in PBS) was then added to achieve a final concentration of 10 mM. The mixture was homogenized and incubated at 37 °C for 12 hours. Stability was assessed by measuring the decrease in peak area at 520 nm (with the initial peak area at 0 min defined as 100%). This measurement was monitored by HPLC–MS. Statistical analysis was performed on data from three replicates to calculate the mean and standard deviation.

Stability in FBS (serum) = format: in vitro ADME; details: for remaining at 1 h, 50 μM / remaining at 2 h, 50 μM / remaining at 3 h, 50 μM / RGD-Dox (%): stability in the FBS; for remaining at 1 h, 50 μM / remaining at 2 h, 50 μM / remaining at 3 h, 50 μM: read-out: RGD-Dox (%)
Method: The results are shown as the mean ± SD. Source data are provided as a Source Data file. […]
Supplementary Fig. 48. Stability of RGD-Dox in the 50% FBS. RGD-Dox was diluted to a concentration of 50 μM
using 50% FBS/PBS (10% DMSO). The mixture was homogenized and incubated at 37 °C. The stability of RGD-Dox
was assessed by measuring the decrease in peak area at 520 nm (with the initial peak area at 0 min defined as 100%).
This measurement was monitored by HPLC–MS. Independent measurements were taken three times. The results are
shown as the mean ± SD. Source data are provided as a Source Data file. […]
Source data are provided as a Source Data file.

SMILES: COc1cccc2c1C(=O)c1c(O)c3c(c(O)c1C2=O)C[C@@](O)(C(=O)CO)C[C@@H]3O[C@H]1C[C@H](NC(=O)OCc2nnc(CCSC[C@@H]3NC(=O)[C@@H](Cc4ccc(O)cc4)NC(=O)[C@H](CC(=O)O)NC(=O)CNC(=O)[C@H](CCCNC(=N)N)NC3=O)nn2)[C@H](O)[C@H](C)O1 [RGD-Dox]
- tumor growth / inhibition in words (B16F10 melanoma tumor): did not exhibit significant tumor inhibition; also recorded: rapid tumor growth
- cellular fluorescence (uptake) in LX2 cells (LX2 cells): negligible fluorescence
- Normalized uptake (B16F10 cells; normalized to Dox = 1, Data 1): 22.44
- Normalized uptake (B16F10 cells; normalized to Dox = 1, Data 2): 22.03
- Normalized uptake (B16F10 cells; normalized to Dox = 1, Data 3): 17.85
- intact (%) under 10 mM GSH at 2 μM ([1]; 1 h, Data 1, 2 μM (below CMC)): 98%
- intact (%) under 10 mM GSH ([1]; 1 h, Data 1, 50 μM): 98.414%
- intact (%) under 10 mM GSH at 2 μM ([1]; 1 h, Data 2, 2 μM (below CMC)): 96.5%
- intact (%) under 10 mM GSH ([1]; 1 h, Data 2, 50 μM): 98.1%
- intact (%) under 10 mM GSH at 2 μM ([1]; 1 h, Data 3, 2 μM (below CMC)): 98%
- intact (%) under 10 mM GSH ([1]; 1 h, Data 3, 50 μM): 97%
- intact (%) under 10 mM GSH at 2 μM ([1]; 3 h, Data 1, 2 μM (below CMC)): 93.4%
- intact (%) under 10 mM GSH ([1]; 3 h, Data 1, 50 μM): 95.9241%
- intact (%) under 10 mM GSH at 2 μM ([1]; 3 h, Data 2, 2 μM (below CMC)): 94.4%
- intact (%) under 10 mM GSH ([1]; 3 h, Data 2, 50 μM): 96.1928%
- intact (%) under 10 mM GSH at 2 μM ([1]; 3 h, Data 3, 2 μM (below CMC)): 94.5%
- intact (%) under 10 mM GSH ([1]; 3 h, Data 3, 50 μM): 97.3114%
- intact (%) under 10 mM GSH at 2 μM ([1]; 5 h, Data 1, 2 μM (below CMC)): 94.7%
- intact (%) under 10 mM GSH at 2 μM ([1]; 5 h, Data 2, 2 μM (below CMC)): 95%
- intact (%) under 10 mM GSH at 2 μM ([1]; 5 h, Data 3, 2 μM (below CMC)): 94.9%
- intact (%) under 10 mM GSH at 2 μM ([1]; 8 h, Data 1, 2 μM (below CMC)): 95%
- intact (%) under 10 mM GSH ([1]; 8 h, Data 1, 50 μM): 93.681%
- intact (%) under 10 mM GSH at 2 μM ([1]; 8 h, Data 2, 2 μM (below CMC)): 95.7%
- intact (%) under 10 mM GSH ([1]; 8 h, Data 2, 50 μM): 93.4607%
- intact (%) under 10 mM GSH at 2 μM ([1]; 8 h, Data 3, 2 μM (below CMC)): 96%
- intact (%) under 10 mM GSH ([1]; 8 h, Data 3, 50 μM): 95.7%
- remained intact with 10 mM GSH at 2 μM ([1]; 12 h, 2 μM (below CMC), HPLC–MS 520 nm, mean of n = 3): 95%
- remained intact with 10 mM GSH ([1]; 12 h, 50 μM, HPLC–MS peak area 520 nm, mean of n = 3): 96%
- intact (%) under 10 mM GSH at 2 μM ([1]; 12 h, Data 1, 2 μM (below CMC)): 96%
- intact (%) under 10 mM GSH ([1]; 12 h, Data 1, 50 μM): 94.9%
- intact (%) under 10 mM GSH at 2 μM ([1]; 12 h, Data 2, 2 μM (below CMC)): 95.4%
- intact (%) under 10 mM GSH ([1]; 12 h, Data 2, 50 μM): 97.6967%
- intact (%) under 10 mM GSH at 2 μM ([1]; 12 h, Data 3, 2 μM (below CMC)): 97%
- intact (%) under 10 mM GSH ([1]; 12 h, Data 3, 50 μM): 96.3405%
- remaining at 5 h, 50 μM (Stability in FBS (serum); bovine, serum, 5 h, 37 °C, 50 μM in 50% FBS/PBS (10% DMSO), HPLC–MS peak area 520 nm, n = 3, read-out: intact in serum): 80%
- remaining at 1 h, 50 μM (Stability in FBS (serum); bovine, serum, Data 1): 97%
- remaining at 1 h, 50 μM (Stability in FBS (serum); bovine, serum, Data 3): 93%
- remaining at 2 h, 50 μM (Stability in FBS (serum); bovine, serum, Data 1): 88%
- remaining at 2 h, 50 μM (Stability in FBS (serum); bovine, serum, Data 3): 89%
- remaining at 3 h, 50 μM (Stability in FBS (serum); bovine, serum, Data 1): 86%
- remaining at 3 h, 50 μM (Stability in FBS (serum); bovine, serum, Data 2): 82%
- remaining at 3 h, 50 μM (Stability in FBS (serum); bovine, serum, Data 3): 84%
- RGD-Dox (%) (Stability in FBS (serum); 0 h, Data 2): 100%
- RGD-Dox (%) (Stability in FBS (serum); 0 h, Data 3): 100%
- RGD-Dox (%) (Stability in FBS (serum); 5 h, Data 1): 80%
- RGD-Dox (%) (Stability in FBS (serum); 5 h, Data 2): 77%
- RGD-Dox (%) (Stability in FBS (serum); 5 h, Data 3): 81%
